Measurements as given in paper PMC8514705.

Target: recombinant DR4 extracellular domain (UniProt O00220)
Sequence (O00220 24-239): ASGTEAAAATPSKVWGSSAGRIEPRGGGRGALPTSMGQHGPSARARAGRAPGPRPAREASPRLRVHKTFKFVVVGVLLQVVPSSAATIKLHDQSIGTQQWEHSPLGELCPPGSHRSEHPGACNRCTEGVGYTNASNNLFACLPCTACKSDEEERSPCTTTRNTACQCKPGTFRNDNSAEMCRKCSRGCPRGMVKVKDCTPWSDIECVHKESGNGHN

## TRAIL (tumor necrosis factor-associated ligand inducing apoptosis), recombinant, amino acid residues 114-280 (from UniProt P50591 114-280)
  decrease of surface DR4 on HCT116 and HT-29 cells with 1,000 ng/ml TRAIL, time course, flow cytometry: 90%
